Measured values as given in patent US20220119534A1 (DRAGONFLY THERAPEUTICS, published 2022).
Several values for one entry are separate records, joined by “and”; a condition that tells them apart may be missing. Identical values can stand only once. One block for each binder: values may come before it.

Key:
[1] = target: T1, Human CD16a V158 (FcγRIIIa V158) (human, UniProt P08637 17-208, biotinylated (site not stated)); assay: SPR; biotinylated CD16a V158 captured on SA chip, TriNKET as analyte; 1:1 kinetic fit; control sample, n=3
T1 construct: V158 is the allele name in mature numbering; also called hCD16aV; hCD16a V158

mFc-hNKG2D = target: T2, mFc-hNKG2D (human, UniProt P26718 73-216); assay: SPR Biacore 8K 37 C; mFc-hNKG2D captured on anti-mFc chip, TriNKET as analyte; steady state fit; control, n=3
T2 construct: extracellular domain; Made in house (Dragonfly Tx); the order of tag and ECD follows the name mFc-hNKG2D; also called mFc-tagged human NKG2D; not shown: mouse Fc tag
T2 sequence (looked up): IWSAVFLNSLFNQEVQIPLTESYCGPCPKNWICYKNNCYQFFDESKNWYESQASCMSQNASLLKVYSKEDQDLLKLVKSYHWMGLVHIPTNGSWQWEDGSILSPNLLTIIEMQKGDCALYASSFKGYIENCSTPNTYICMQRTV

Human CLEC12A-His = target: T3, Human CLEC12A-His (human, UniProt Q5QGZ9 65-265); assay: SPR Biacore 8K 37 C; TriNKET captured on anti-hFc chip, hCLEC12A-His as analyte; 1:1 fit; after 4 wks 40 C in phosphate/citrate/NaCl pH 7.8, n=2
T3 construct: Recombinant soluble protein made in house (Dragonfly Tx); The hCLEC12A spot of the HuProt array is written under this molecule as well; also called hCLEC12A-His; hCLEC12A; not shown: His tag
T3 sequence: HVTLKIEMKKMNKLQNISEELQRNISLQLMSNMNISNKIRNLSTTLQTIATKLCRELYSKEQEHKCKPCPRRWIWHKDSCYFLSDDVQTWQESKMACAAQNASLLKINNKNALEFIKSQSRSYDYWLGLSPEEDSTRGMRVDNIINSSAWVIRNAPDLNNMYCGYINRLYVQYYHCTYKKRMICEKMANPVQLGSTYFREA

[2] = target: T4, human CLEC12A on cells (HL60, PL21, Ba/F3-hCLEC12A) (human, UniProt Q5QGZ9 1-265); assay: flow cytometry, 40 nM, MFI after 2 h 37 C relative to 2 h on ice, HL60 cells
T4 construct: Endogenous on the AML lines HL60 and PL21; brought into mouse Ba/F3 cells by retroviral transduction; The cell line stands under assay; also called CLL-1
T4 sequence: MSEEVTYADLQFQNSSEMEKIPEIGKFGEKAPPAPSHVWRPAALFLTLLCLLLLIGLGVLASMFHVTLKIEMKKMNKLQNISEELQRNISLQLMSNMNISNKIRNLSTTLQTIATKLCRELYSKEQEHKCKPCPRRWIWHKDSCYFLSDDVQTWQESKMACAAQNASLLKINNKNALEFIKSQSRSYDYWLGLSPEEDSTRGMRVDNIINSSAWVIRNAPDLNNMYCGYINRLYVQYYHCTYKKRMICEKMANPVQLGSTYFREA

[3] = target: T5, recombinant human CD32a R131 (human, UniProt P12318 36-218, limits assumed, biotinylated); assay: SPR 25C, steady state
T5 construct: also called FcγRIIa R131
T5 sequence (looked up): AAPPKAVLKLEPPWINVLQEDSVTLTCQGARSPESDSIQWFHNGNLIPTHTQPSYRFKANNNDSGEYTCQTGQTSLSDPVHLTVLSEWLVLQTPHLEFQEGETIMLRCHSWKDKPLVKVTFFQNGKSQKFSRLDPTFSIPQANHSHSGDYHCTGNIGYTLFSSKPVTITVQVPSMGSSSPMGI

[4] = target: T6, recombinant human CD16a V158 (human, UniProt P08637 17-208, biotinylated); assay: SPR 25C, kinetic fit, average
T6 construct: also called FcγRIIIa V158; hCD16aV
T6 sequence (P08637 17-208 F176V limits assumed): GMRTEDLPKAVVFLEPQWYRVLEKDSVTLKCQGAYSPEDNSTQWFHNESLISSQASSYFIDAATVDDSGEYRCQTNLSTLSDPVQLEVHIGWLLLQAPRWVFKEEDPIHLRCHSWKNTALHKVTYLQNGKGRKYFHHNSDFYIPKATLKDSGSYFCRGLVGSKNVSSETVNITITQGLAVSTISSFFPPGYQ

T1 sequence (P08637 17-208 F176V limits assumed): as above

Kd [1]: 212 nM
koff [1]: 0.024 s⁻¹
kon [1]: 113000 M⁻¹ s⁻¹
Kd (mFc-hNKG2D): 710 nM
Kd (Human CLEC12A-His): 1.14 nM
koff (Human CLEC12A-His): 0.000948 s⁻¹
kon (Human CLEC12A-His): 829000 M⁻¹ s⁻¹
B1: F3'-1602 TriNKET (bispecific antibody, human IgG1, kappa)
chain: QLQLQESGPGLVKPSETLSLTCTVSGFSLTNYGLHWIRQPPGKCLEWIGVIWSGGKTDYNPSLKSRVTISKDTSKNQFSLKLSSVQAADTAVYYCAKYDYDDSLDYWGQGTLVTVSSGGGGSGGGGSGGGGSGGGGSDIQMTQSPSSLSASVGDRVTITCHASQNINFWLSWYQQKPGKAPKLLIYEASNLHTGVPSRFSGSGSGTRFTLTISSLQPEDIATYYCQQSHSYPLTFGCGTKLEIKGSDKTHTCPPCPAPELLGGPSVFLFPPKPKDTLMISRTPEVTCVVVDVSHEDPEVKFNWYVDGVEVHNAKTKPREEQYNSTYRVVSVLTVLHQDWLNGKEYKCKVSNKALPAPIEKTISKAKGQPREPRVYTLPPCRDELTKNQVSLTCLVKGFYPSDIAVEWESNGQPENNYKTTPPVLVSDGSFTLYSKLTVDKSRWQQGNVFSCSVMHEALHNHYTQKSLSLSPG
heavy: EVQLVESGGGLVKPGGSLRLSCAASGFTFSSYSMNWVRQAPGKGLEWVSSISSSSSYIYYADSVKGRFTISRDNAKNSLYLQMNSLRAEDTAVYYCARGAPIGAAAGWFDPWGQGTLVTVSSASTKGPSVFPLAPSSKSTSGGTAALGCLVKDYFPEPVTVSWNSGALTSGVHTFPAVLQSSGLYSLSSVVTVPSSSLGTQTYICNVNHKPSNTKVDKKVEPKSCDKTHTCPPCPAPELLGGPSVFLFPPKPKDTLMISRTPEVTCVVVDVSHEDPEVKFNWYVDGVEVHNAKTKPREEQYNSTYRVVSVLTVLHQDWLNGKEYKCKVSNKALPAPIEKTISKAKGQPREPQVCTLPPSRDELTENQVSLTCLVKGFYPSDIAVEWESNGQPENNYKTTPPVLDSDGSFFLYSWLTVDKSRWQQGNVFSCSVMHEALHNHYTQKSLSLSPG
light: DIQMTQSPSSVSASVGDRVTITCRASQGISSWLAWYQQKPGKAPKLLIYAASSLQSGVPSRFSGSGSGTDFTLTISSLQPEDFATYYCQQGVSFPRTFGGGTKVEIKRTVAAPSVFIFPPSDEQLKSGTASVVCLLNNFYPREAKVQWKVDNALQSGNSQESVTEQDSKDSTYSLSSTLTLSKADYEKHKVYACEVTHQGLSSPVTKSFNRGEC
notes: Trispecific F3' format: CLEC12A scFv-Fc paired with NKG2D Fab-Fc; Stressed and control samples of the stability studies are the same molecule; also called AB0237

percent surface retention [2]: 103%
B2: AB0192 TriNKET (other)
chain: EVQLVESGGGVVQPGGSLRLSCAASGFTFNAFGMHWVRQAPGKCLEWVAFISSGSTSIYYANTVKGRFTISRDNSKNTLYLQMNSLRAEDTAVYYCARDGYPTGGAMDYWGQGTSVTVSSGGGGSGGGGSGGGGSGGGGSDIQMTQSPSSLSASVGDRVTITCKASQDIYNYLSWFQQKPGKAPKPLIYRANILVSGVPSRFSGSGSGQDYTFTISSLQPEDIATYYCLQFDAFPFTFGCGTKLEIKGSDKTHTCPPCPAPELLGGPSVFLFPPKPKDTLMISRTPEVTCVVVDVSHEDPEVKFNWYVDGVEVHNAKTKPREEQYNSTYRVVSVLTVLHQDWLNGKEYKCKVSNKALPAPIEKTISKAKGQPREPRVYTLPPCRDELTKNQVSLTCLVKGFYPSDIAVEWESNGQPENNYKTTPPVLVSDGSFTLYSKLTVDKSRWQQGNVFSCSVMHEALHNHYTQKSLSLSPG
heavy: EVQLVESGGGLVKPGGSLRLSCAASGFTFSSYSMNWVRQAPGKGLEWVSSISSSSSYIYYADSVKGRFTISRDNAKNSLYLQMNSLRAEDTAVYYCARGAPIGAAAGWFDPWGQGTLVTVSSASTKGPSVFPLAPSSKSTSGGTAALGCLVKDYFPEPVTVSWNSGALTSGVHTFPAVLQSSGLYSLSSVVTVPSSSLGTQTYICNVNHKPSNTKVDKKVEPKSCDKTHTCPPCPAPELLGGPSVFLFPPKPKDTLMISRTPEVTCVVVDVSHEDPEVKFNWYVDGVEVHNAKTKPREEQYNSTYRVVSVLTVLHQDWLNGKEYKCKVSNKALPAPIEKTISKAKGQPREPQVCTLPPSRDELTENQVSLTCLVKGFYPSDIAVEWESNGQPENNYKTTPPVLDSDGSFFLYSWLTVDKSRWQQGNVFSCSVMHEALHNHYTQKSLSLSPG
light: DIQMTQSPSSVSASVGDRVTITCRASQGISSWLAWYQQKPGKAPKLLIYAASSLQSGVPSRFSGSGSGTDFTLTISSLQPEDFATYYCQQGVSFPRTFGGGTKVEIKRTVAAPSVFIFPPSDEQLKSGTASVVCLLNNFYPREAKVQWKVDNALQSGNSQESVTEQDSKDSTYSLSSTLTLSKADYEKHKVYACEVTHQGLSSPVTKSFNRGEC
notes: the condition stands under assay; also called AB0192 Lot AB0192-005

Kd [3]: 1400 nM and 1300 nM and 1700 nM and 1200 nM
Kd [4]: 238 nM
koff [4]: 0.022 s⁻¹
kon [4]: 94000 M⁻¹ s⁻¹
B3: F3'-1602 TriNKET (other)
chain: QLQLQESGPGLVKPSETLSLTCTVSGFSLTNYGLHWIRQPPGKCLEWIGVIWSGGKTDYNPSLKSRVTISKDTSKNQFSLKLSSVQAADTAVYYCAKYDYDDSLDYWGQGTLVTVSSGGGGSGGGGSGGGGSGGGGSDIQMTQSPSSLSASVGDRVTITCHASQNINFWLSWYQQKPGKAPKLLIYEASNLHTGVPSRFSGSGSGTRFTLTISSLQPEDIATYYCQQSHSYPLTFGCGTKLEIKGSDKTHTCPPCPAPELLGGPSVFLFPPKPKDTLMISRTPEVTCVVVDVSHEDPEVKFNWYVDGVEVHNAKTKPREEQYNSTYRVVSVLTVLHQDWLNGKEYKCKVSNKALPAPIEKTISKAKGQPREPRVYTLPPCRDELTKNQVSLTCLVKGFYPSDIAVEWESNGQPENNYKTTPPVLVSDGSFTLYSKLTVDKSRWQQGNVFSCSVMHEALHNHYTQKSLSLSPG
heavy: EVQLVESGGGLVKPGGSLRLSCAASGFTFSSYSMNWVRQAPGKGLEWVSSISSSSSYIYYADSVKGRFTISRDNAKNSLYLQMNSLRAEDTAVYYCARGAPIGAAAGWFDPWGQGTLVTVSSASTKGPSVFPLAPSSKSTSGGTAALGCLVKDYFPEPVTVSWNSGALTSGVHTFPAVLQSSGLYSLSSVVTVPSSSLGTQTYICNVNHKPSNTKVDKKVEPKSCDKTHTCPPCPAPELLGGPSVFLFPPKPKDTLMISRTPEVTCVVVDVSHEDPEVKFNWYVDGVEVHNAKTKPREEQYNSTYRVVSVLTVLHQDWLNGKEYKCKVSNKALPAPIEKTISKAKGQPREPQVCTLPPSRDELTENQVSLTCLVKGFYPSDIAVEWESNGQPENNYKTTPPVLDSDGSFFLYSWLTVDKSRWQQGNVFSCSVMHEALHNHYTQKSLSLSPG
light: DIQMTQSPSSVSASVGDRVTITCRASQGISSWLAWYQQKPGKAPKLLIYAASSLQSGVPSRFSGSGSGTDFTLTISSLQPEDFATYYCQQGVSFPRTFGGGTKVEIKRTVAAPSVFIFPPSDEQLKSGTASVVCLLNNFYPREAKVQWKVDNALQSGNSQESVTEQDSKDSTYSLSSTLTLSKADYEKHKVYACEVTHQGLSSPVTKSFNRGEC
notes: CLEC12A scFv-Fc, NKG2D A49MI Fab-Fc, human IgG1 Fc; also called AB0237
